Measurements taken from the supplement of paper PMC10567573.

B1: MLL5 (parent)
chain: TYLCERCQPRNLDKERAVLLQRRK
B2: LYSMD4 (parent)
chain: LLQRELAQEDSLNKLALQYGCKVA

Variants of: B1
Assay: protein stability index of a GFP-peptide fusion (GPS, HEK-293T) (PSI 1-6); higher = more stable
Conditions: c terminus: a fixed tail appended
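Note: lentivirally expressed fusions sorted by FACS into six bins by GFP to DsRed ratio, PSI derived from sequencing read proportions per bin multiplied by bin number.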

Protein stability index: each site, then its substitutions
T1: Y 2.14; Q 2.14; I 1.93; G 1.82; V 1.5; A 2.29; R 2.76; S 1.87; W 3.05; M 1.39; D 2.73; F 1.27; N 2.13; H 2.18; E 1.47; K 2.48
Y2: N 2.43; I 2.77; K 3.44; C 1.76; G 2.78; H 2.58; E 2.4; P 3.19; L 2.78; D 2.78; M 2.53

Variants of: B2
Assay: as above
Conditions: c terminus: a fixed tail appended

Protein stability index: each site, then its substitutions
G20: I 2.42; S 1.72; N 2.37; E 1.7; A 1.09; M 3.62
K14: C 2.37; H 2.07; G 2.91; R 1
L15: P 3.97; K 3.1; N 3.75; W 1.2; Y 2.27; T 2.93; Q 3.65; G 3.11; C 2.34
C21: R 2.54; E 3.43; G 2.66; I 1.91; M 1.47; L 1.95; Q 2.98
Q18: A 1.65; T 1.18; M 1.72; W 2.51; S 1.74; E 2.65
E5: F 3.86; V 2.88; D 1.44; N 1.71; Y 2.21; A 3.05
D10: P 1.86; I 1.04; H 1.22; T 1.92; E 1.83
N13: K 1.94; P 1.95
L6: A 2.06; C 2.02; Q 2.18
A16: Y 1.26; G 2.18; K 2.48; D 3.12
L2: I 2.18; W 1.5; T 1.91; A 2.26; V 2.29; Q 1.86; Y 1.61; D 2.63; N 2.04; H 1.02
E9: W 1.02; P 1.63; I 2.69; K 1.35; D 2.68
Q8: L 1.58; K 1.66; D 4.68; I 1.89; G 1.42; F 1.59
S11: I 1.04; H 2.01; C 1.79; P 1.48; D 1.88
Q3: M 1.65; G 2.85; L 1.59; P 1.41; I 1.46
L17: G 2.98; W 2.65; F 3.31; Q 2.12; I 1.45; C 1.49; T 1.09; N 1.57; H 2.29
Y19: P 3.28; S 3.13; I 1.59; Q 3.78; R 1.85
A7: F 2.73; M 2.77; I 2.63
R4: P 2.06; A 1.64; Y 3.28; L 2.03; S 1.25
V23: A 3.18; N 3.62; R 2.47; M 1.75; Y 2.45
L1: E 1.5; F 1.55; K 1.99; W 2.31; G 1.52; T 1.8
L12: G 3.39; S 3.54; K 2.02; I 2.06; Y 2.38; P 3.54; F 2.33; C 1.72; E 3.83; H 3.65
A24: V 3.02; N 1.98; C 3.03; W 4.48; T 2.19; R 1.95; H 1.03
K22: A 2.7; I 1.78; Y 1.35; E 3.75; S 2.2; D 2.08; L 1.62
